Test results reported in patent publication US20220331363A1 (SHANGHAI GENBASE BIOTECHNOLOGY, published 2022).

Key:
[1] = molecular target: T1, human BCMA expressed on human multiple myeloma cells (U266, MM.1S, RPMI8226) (human, UniProt Q02223 1-184); test: flow cytometry (FACS) on MM.1S cells
T1 construct: whole, on cells; Endogenous BCMA on tumor cell lines; also called BCMA-expressing tumor cells; BCMA+ cell line
T1 sequence (looked up): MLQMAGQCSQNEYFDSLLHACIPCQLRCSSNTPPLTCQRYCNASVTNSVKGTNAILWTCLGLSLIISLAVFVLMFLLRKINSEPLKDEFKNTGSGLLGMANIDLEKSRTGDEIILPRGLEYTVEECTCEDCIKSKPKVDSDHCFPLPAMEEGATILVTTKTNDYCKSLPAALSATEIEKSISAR
Procedure: (§1) Cells (human myeloma cells expressing BCMA or tissue cells not expressing BCMA) were digested, and 500,000 cells were seeded in 50 μL of PBS containing 2% FBS (FACS buffer) in a U-bottom 96-well plate. The test samples were subjected to a 3-fold serial dilution by diluting ⅓ volume (100 μL) in 200 μL of FACS buffer, starting at a concentration of 300 μg/mL (final concentration). 50 μL of the diluted antibody was added to each well of the cell plate and incubated at 4° C. for 1 hour. After washing twice with FACS buffer, 100 μL of secondary antibody (Abcam ab97003, 5 μg/mL, diluted in FACS buffer) was added to each well, and incubated at 4° C. for 0.5 hours. After staining and washing twice with FACS buffer, 200 μL of FACS buffer was added to each well, and reading was performed on the machine (BD C6plus).

[2] = molecular target: T2, recombinant human BCMA protein (Sino Biological, 10620-H08H) (human, UniProt Q02223 1-54); test: ELISA, BCMA protein coated at 1 µg/mL, HRP anti-human secondary antibody
T2 construct: Bought protein, coated on the ELISA plate
T2 sequence (looked up): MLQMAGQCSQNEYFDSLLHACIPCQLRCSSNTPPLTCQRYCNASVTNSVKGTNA
Procedure: The binding activity of the antibodies to human BCMA protein was assessed using an ELISA method, and the antibody potency was compared using dose-dependent binding curves in ELISA.
BCMA protein (Sino Biological, 10620-H08H) was diluted to 1 μg/mL in PBS, 100 μL of the protein solution was added to each well of the ELISA plate and incubated at 4° C. overnight. The plate was washed 3 times in wash buffer (PBS, 0.05% Tween 20), and non-specific sites were blocked by adding 200 μl/w PBS+2% BSA blocking solution. C11D5.3-03, C11D5.3-04 or murine antibody C11D5.3 was added and incubated at 37° C. for 2 h. The plate was washed 3 times in wash buffer, and HRP-conjugated goat anti-human secondary antibody was added and incubated for 1 h at room temperature. The plate was washed 3 times in wash buffer, and the bound secondary antibody was detected by adding TMB (HRP substrate) and incubating the plate in the dark at room temperature for 5 to 10 minutes. The enzymatic reaction was stopped by adding 1M of sulfuric acid solution, and the light absorption at 450 nm was measured.

[3] = molecular target: T1, human BCMA expressed on human multiple …; test: flow cytometry (FACS) on RPMI8226 cells
Procedure: as §1

[4] = molecular target: human Burkitt's lymphoma cell Daudi; test: flow cytometry (FACS) on Daudi cells, which Example 3 says do not express BCMA
Procedure: as §1

[5] = molecular target: T1, human BCMA expressed on human multiple …; test: flow cytometry (FACS) on U266 cells
Procedure: as §1

B1: humanized anti-BCMA antibody C11D5.3-03 (scFv) (scFv, V domains shown)
VH: QIQLVQSGSELKKPGASVKVSCKASGYTFTDYSINWVRQAPGQGLEWMGWINTETREPAYAQGFTGRFVFSLDTSVSTAYLQISSLKAEDTAVYFCALDYSYAMDYWGQGTLVTVSS
VL: EIVLTQSPATLSMSLGERATLSCRASQSVTILGSHLIHWYQQKPGQPPRLLIQLASNVQTGIPARFSGSGSRTDFTLTISSLEEEDFAVYYCLQSRTIPRTFGGGTKVEIK
notes: For the soluble protein it states neither the domain order nor the linker
B1 was tested, and the EC50 [1] was 0.81 µg/mL, the EC50 [2] was 0.011 µg/mL and the EC50 [3] was 2.25 µg/mL. For the same binder, the EC50 [4] was 36.3 µg/mL and the EC50 [5] was 7.57 µg/mL.

B2: humanized anti-BCMA antibody C11D5.3-04 (scFv) (scFv, V domains shown)
VH: QIQLVQSGSELKKPGASVKVSCKASGYTFTDYSMNWVRQAPGQGLEWMGWINTETREPTYAQGFTGRFVFSLDTSVSTAYLQISSLKAEDTAVYFCALDYSYAMDYWGQGTLVTVSS
VL: EIVLTQSPATLSMSLGERATLSCRASESVTILGSHLIHWYQQKPGQPPRLLIQLASNRATGIPARFSGSGSRTDFTLTISSLEEEDFAVYYCLQSRTIPRTFGGGTKVEIK
notes: as for B1
With B2 the EC50 [1] was 0.47 µg/mL, the EC50 [2] was 0.011 µg/mL and the EC50 [3] was 0.82 µg/mL. It also gave an EC50 [4] of 30.7 µg/mL and an EC50 [5] of 1.99 µg/mL.

B3: murine anti-BCMA antibody C11D5.3 (scFv), reference antibody (scFv, V domains shown)
VH: QIQLVQSGPELKKPGETVKISCKASGYTFTDYSINWVKRAPGKGLKWMGWINTETREPAYAYDFRGRFAFSLETSASTAYLQINNLKYEDTATYFCALDYSYAMDYWGQGTSVTVSS
VL: DIVLTQSPPSLAMSLGKRATISCRASESVTILGSHLIHWYQQKPGQPPTLLIQLASNVQTGVPARFSGSGSRTDFTLTIDPVEEDDVAVYYCLQSRTIPRTFGGGTKLEIK
B3 gave an EC50 [1] of 1.62 µg/mL, an EC50 [2] of 0.011 µg/mL and an EC50 [3] of 3.81 µg/mL. The EC50 [5] was 4.4 µg/mL.
